These results are taken from PMC3074145 (Nucleic Acids Research, 2010).

Like-named read-outs stand apart in the source and are kept apart here.

The target of one series is T1, GST–Dpb11 (S. cerevisiae, UniProt P47027 1-764).
T1 sequence (looked up): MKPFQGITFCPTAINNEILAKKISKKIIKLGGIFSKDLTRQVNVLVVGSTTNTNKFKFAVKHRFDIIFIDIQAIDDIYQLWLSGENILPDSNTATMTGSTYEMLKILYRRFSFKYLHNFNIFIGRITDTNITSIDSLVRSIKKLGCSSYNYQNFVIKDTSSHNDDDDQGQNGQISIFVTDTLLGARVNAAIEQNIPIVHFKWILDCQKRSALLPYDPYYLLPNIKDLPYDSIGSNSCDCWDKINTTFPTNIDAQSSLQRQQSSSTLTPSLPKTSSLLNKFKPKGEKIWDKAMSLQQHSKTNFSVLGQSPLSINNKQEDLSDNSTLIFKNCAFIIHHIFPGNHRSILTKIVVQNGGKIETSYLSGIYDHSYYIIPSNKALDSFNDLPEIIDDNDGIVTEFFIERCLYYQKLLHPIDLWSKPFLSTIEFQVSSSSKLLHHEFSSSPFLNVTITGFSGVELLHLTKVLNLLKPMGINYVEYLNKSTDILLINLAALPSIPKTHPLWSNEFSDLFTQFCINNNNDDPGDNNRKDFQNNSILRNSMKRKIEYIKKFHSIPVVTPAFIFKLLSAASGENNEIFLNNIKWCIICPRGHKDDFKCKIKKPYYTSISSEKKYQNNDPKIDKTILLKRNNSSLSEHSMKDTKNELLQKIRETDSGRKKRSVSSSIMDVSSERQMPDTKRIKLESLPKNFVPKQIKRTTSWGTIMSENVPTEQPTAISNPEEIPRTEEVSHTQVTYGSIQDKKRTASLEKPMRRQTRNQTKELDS
The series can be described thus: pull-down.

For series [1], the target named is T2, GST-Sld2T84D (Saccharomyces cerevisiae, UniProt P34252 1-453, T84D).
T2 sequence: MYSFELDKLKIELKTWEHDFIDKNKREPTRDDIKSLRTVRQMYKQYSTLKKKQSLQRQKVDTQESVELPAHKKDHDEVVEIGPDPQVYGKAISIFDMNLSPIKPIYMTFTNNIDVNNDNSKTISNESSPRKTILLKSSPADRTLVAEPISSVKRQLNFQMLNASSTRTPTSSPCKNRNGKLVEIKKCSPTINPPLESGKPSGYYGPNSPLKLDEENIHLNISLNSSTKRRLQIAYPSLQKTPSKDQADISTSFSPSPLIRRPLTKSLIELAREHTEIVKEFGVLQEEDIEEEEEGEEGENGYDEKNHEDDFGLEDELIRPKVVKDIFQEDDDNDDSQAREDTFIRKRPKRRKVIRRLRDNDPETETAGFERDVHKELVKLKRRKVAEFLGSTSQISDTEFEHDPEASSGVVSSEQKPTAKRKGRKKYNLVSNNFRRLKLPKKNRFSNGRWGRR
The series is described as follows: GST pull-down.

In series [2] the target is T2, GST-Sld2T84D. The series can be described thus: GST pull-down. The source holds these as a separate data set.
The target of a further series is T3, Sld2 (Saccharomyces cerevisiae, UniProt P34252 1-453).
T3 sequence: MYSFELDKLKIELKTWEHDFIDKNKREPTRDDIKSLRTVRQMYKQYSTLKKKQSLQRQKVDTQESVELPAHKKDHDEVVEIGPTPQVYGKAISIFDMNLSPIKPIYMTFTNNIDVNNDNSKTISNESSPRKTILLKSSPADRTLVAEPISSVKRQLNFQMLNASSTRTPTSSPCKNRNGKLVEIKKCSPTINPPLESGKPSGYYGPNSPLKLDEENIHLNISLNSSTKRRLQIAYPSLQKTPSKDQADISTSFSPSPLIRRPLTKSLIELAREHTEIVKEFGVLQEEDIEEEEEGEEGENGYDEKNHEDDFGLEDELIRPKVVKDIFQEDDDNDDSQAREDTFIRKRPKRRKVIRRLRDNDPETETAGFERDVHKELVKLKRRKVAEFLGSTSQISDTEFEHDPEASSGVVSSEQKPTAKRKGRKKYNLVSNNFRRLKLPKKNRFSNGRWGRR
The series can be described thus: fluorescence anisotropy. On the technique in general: Fluorescence polarisation rises when a labelled molecule tumbles more slowly, as on binding a larger partner.

In a further series the target is T4, Sld2T84D (Saccharomyces cerevisiae, UniProt P34252 1-453, T84D).
T4 sequence: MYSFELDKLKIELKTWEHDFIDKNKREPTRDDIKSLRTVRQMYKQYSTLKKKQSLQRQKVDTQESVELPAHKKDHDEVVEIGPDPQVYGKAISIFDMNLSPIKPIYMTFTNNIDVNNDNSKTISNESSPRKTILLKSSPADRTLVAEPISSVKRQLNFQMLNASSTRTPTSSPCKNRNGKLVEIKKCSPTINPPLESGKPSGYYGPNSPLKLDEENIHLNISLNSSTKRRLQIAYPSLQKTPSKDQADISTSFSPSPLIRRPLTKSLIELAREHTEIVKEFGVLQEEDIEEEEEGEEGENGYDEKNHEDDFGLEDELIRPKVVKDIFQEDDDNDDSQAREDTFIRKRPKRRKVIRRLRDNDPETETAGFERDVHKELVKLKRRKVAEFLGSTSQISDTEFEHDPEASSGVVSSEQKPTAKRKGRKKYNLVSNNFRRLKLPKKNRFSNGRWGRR
The series can be described thus: fluorescence anisotropy.

The next series addresses T5, Dpb11;Sld2T84D (Saccharomyces cerevisiae;Saccharomyces …, UniProt P47027;P34252 1-764;1-453, |T84D).
T5 sequence 1: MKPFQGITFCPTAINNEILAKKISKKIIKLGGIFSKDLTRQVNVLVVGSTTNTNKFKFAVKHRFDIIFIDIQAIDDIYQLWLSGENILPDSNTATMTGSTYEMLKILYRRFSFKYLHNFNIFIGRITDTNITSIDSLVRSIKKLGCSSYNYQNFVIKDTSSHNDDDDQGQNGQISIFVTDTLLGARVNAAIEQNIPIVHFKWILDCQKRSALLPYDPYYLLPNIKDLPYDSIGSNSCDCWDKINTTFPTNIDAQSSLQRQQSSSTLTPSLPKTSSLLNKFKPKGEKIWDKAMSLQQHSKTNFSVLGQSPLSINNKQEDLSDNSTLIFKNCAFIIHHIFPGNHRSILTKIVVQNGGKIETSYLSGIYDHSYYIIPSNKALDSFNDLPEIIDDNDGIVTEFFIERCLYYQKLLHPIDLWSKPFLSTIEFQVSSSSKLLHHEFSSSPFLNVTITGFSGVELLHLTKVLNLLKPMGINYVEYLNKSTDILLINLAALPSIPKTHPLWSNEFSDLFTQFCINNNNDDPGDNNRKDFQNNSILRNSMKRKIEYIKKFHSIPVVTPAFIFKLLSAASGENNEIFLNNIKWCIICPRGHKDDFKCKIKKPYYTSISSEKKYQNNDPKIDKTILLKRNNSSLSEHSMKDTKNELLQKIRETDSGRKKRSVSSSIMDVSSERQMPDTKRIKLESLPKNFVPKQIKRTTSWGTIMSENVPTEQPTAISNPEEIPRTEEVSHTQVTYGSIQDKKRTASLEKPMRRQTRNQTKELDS
T5 sequence 2: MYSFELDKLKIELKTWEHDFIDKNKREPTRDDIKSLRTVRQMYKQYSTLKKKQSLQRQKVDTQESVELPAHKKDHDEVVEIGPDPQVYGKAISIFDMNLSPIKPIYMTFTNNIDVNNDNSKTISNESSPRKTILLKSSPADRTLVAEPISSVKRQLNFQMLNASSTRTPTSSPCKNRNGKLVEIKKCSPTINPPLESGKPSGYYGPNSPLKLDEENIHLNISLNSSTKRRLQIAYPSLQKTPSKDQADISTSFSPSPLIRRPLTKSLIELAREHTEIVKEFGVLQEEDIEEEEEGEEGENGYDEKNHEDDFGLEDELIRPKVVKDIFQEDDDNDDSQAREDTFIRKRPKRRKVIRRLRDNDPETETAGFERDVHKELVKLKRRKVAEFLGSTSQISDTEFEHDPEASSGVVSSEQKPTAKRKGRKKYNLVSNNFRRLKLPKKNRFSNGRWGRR
The series is described as follows: biotin-DNA pull-down.

B1: Sld2T84D (radiolabeled, with a PKA sequence at the N-terminus) (natural protein, S. cerevisiae, UniProt P34252 1-453, looked up)
chain: MYSFELDKLKIELKTWEHDFIDKNKREPTRDDIKSLRTVRQMYKQYSTLKKKQSLQRQKVDTQESVELPAHKKDHDEVVEIGPDPQVYGKAISIFDMNLSPIKPIYMTFTNNIDVNNDNSKTISNESSPRKTILLKSSPADRTLVAEPISSVKRQLNFQMLNASSTRTPTSSPCKNRNGKLVEIKKCSPTINPPLESGKPSGYYGPNSPLKLDEENIHLNISLNSSTKRRLQIAYPSLQKTPSKDQADISTSFSPSPLIRRPLTKSLIELAREHTEIVKEFGVLQEEDIEEEEEGEEGENGYDEKNHEDDFGLEDELIRPKVVKDIFQEDDDNDDSQAREDTFIRKRPKRRKVIRRLRDNDPETETAGFERDVHKELVKLKRRKVAEFLGSTSQISDTEFEHDPEASSGVVSSEQKPTAKRKGRKKYNLVSNNFRRLKLPKKNRFSNGRWGRR
modifications: 32P-phosphate on the N-terminal PKA sequence (radiolabeled with PKA and γ-32P-ATP)
Turning to B1, the “percent of input pulled down (with ssARS1-1 at a ratio of 1.2 ssARS1-1/Sld2T84D)” value in the series with GST–Dpb11 amounted to 35.2%.

B2: ARS1-G-C (ssDNA)
DNA: TTACATCTTGTTATTTTACACATTTTATCTTTACATCTTTTATCCTTCCTTTTCAAAACCCCTCCACCCAACTCCACAAA
As to B2, in the series with GST-Sld2T84D [1], the binding result is reported as “binds”.

B3: ARS1-A-C (ssDNA)
DNA: TTCCCTCTTGTTCTTTTCCCGCTTTTCTGTTTCGCTCTTTTCTGCTTGCTTTTCCCCCGGCCTGCCGGCCCGTGCCCCCC
Take B3: the binding result with GST-Sld2T84D [1] is on record as “binds”.

B4: ARS1-T-A (ssDNA)
DNA: AAACAACAAGAAAAAAAACAGAAAAAAAGAAAAGAACAAAAAAGCAAGCAAAACAAAAGGCCAGCAGGCAAGAGCACAAA
Turning to B4, the binding result with GST-Sld2T84D [2] was “no binding”.

B5: FAM-ssARS1-1 (ssDNA)
DNA: TTACATCTTGTTATTTTACAGATTTTATGTTTAGATCTTTTATGCTTGCTTTTCAAAAGGCCTGCAGGCAAGTGCACAAA
For the molecule B5, the Kd (commonly a measure of binding affinity in units of concentration) with Sld2 is 694 ± 50 nM; with Sld2T84D, 179 ± 43 nM.

B6: Biotin-ssARS1-1 (ssDNA)
DNA: TTACATCTTGTTATTTTACAGATTTTATGTTTAGATCTTTTATGCTTGCTTTTCAAAAGGCCTGCAGGCAAGTGCACAAA
In the case of B6, the binding result with Dpb11;Sld2T84D was “binds”.
